Data from PMC3082517 (PLoS Biology, 2011).

Tests used:
TrkA receptor = biological target: TrkA receptor; design: method as in PMID 16939974; conditions: read-out: KD of NGF binding to TrkA receptor; cited from earlier work
nnr5 cells = assay: Apoptosis of nnr5 cells (PC12 clone expressing only p75NTR); type: cell-based; conditions: DHEA 100 nM, NGF 100 ng/ml
Description: PC12 cells were obtained from LGC Promochem (LGC Standards GmbH, Germany) and nnr5 cells from Dr. C.F. Ibáñez (Karolinska Institute). Both cell types were grown in RPMI 1640 containing 2 mM L-glutamine, 15 mM HEPES, 100 units/ml penicillin, 0.1 mg/ml streptomycin, and 10% horse serum, 5% fetal calf serum (both charcoal-stripped for removing endogenous steroids) at 5% CO2 and 37°C. HEK-293 cells were obtained from LGC Promochem. Cells were grown in DMEM medium containing 10% fetal bovine serum (charcoal-stripped for removing endogenous steroids), 100 units/ml penicillin, and 0.1 mg/ml streptomycin, at 5% CO2 and […]. HEK-293 and PC12 cells were transfected with Lipofectamine 2000 (InVitrogen) according to manufacturer's instructions. Transfected cells were typically used on the 2nd day after transfection.
PC12 cells were cultured in 12-well plates, and 24 h later they were transfected with the si/shRNAs for TrkA and/or p75^NTR. […] Apoptosis was quantified 24 h later with annexin V-FITC and PI (BD Pharmingen) according to our protocol.

TrkA [1] = biological target: T1, TrkA (Rattus norvegicus, UniProt P35739); assay: Tyr490 TrkA phosphorylation in naive PC12 cells (Western blot); type: cell-based; design: PC12 cells, endogenously expressing TrkA receptors; endogenous in cells; host or cells: PC12; conditions: 10 min, DHEA 100 nM, NGF 100 ng/ml
T1 sequence (P35739 33-799): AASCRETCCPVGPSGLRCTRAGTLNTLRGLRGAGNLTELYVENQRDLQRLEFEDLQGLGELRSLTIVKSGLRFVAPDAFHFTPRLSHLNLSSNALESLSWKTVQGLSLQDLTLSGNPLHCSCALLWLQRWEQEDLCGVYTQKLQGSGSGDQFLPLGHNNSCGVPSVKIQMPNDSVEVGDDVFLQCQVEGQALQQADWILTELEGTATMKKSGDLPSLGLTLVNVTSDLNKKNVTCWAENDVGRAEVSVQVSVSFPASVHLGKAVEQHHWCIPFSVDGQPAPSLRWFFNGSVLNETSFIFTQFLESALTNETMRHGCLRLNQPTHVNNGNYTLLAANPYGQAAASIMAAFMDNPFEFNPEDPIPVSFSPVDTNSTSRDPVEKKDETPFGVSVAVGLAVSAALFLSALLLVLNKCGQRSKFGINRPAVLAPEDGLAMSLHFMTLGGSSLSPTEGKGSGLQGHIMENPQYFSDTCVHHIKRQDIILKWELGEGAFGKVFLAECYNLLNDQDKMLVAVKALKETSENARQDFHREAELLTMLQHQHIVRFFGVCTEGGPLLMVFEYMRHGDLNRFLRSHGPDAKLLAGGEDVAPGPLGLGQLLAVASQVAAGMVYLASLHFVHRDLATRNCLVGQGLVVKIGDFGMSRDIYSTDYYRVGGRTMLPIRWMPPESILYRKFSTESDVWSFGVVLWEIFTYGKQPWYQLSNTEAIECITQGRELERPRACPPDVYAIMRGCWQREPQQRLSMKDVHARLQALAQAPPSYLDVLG
Description: (§1) PC12 or HEK293 cells lysates were electrophoresed through a 12% SDS-polyacrylamide gel, and then proteins were transferred to nitrocellulose membranes, which were processed according to standard Western blotting procedures, as previously described. To detect protein levels, membranes were incubated with the appropriate antibodies: Bcl-2 (dilution 1∶500), phospho TrkA (dilution 1∶500), total TrkA (dilution1∶500), p75^NTR (dilution 1∶500), phospho Shc (dilution 1∶1000), total Shc (dilution 1∶1000), phospho Akt (dilution 1∶500), total Akt (dilution 1∶500), phospho ERK1/2 (dilution 1∶500), and total ERK1/2 (dilution 1∶500). Proteins were visualized using the ECL Western blotting kit (ECL Amersham Biosciences, UK), and blots were exposed to Kodak X-Omat AR films. A PC-based Image Analysis program was used to quantify the intensity of each band (Image Analysis, Inc., Ontario, Canada).
(§2) To normalize for protein content the blots were stripped and stained with GAPDH antibody (dilution 1∶1000); the concentration of each target protein was normalized versus GAPDH. Where phosphorylation of TrkA or kinases was measured, membranes were first probed for the phosphorylated form of the protein, then stripped, and probed for the total protein.

p75^NTR receptor = biological target: p75^NTR receptor; design: method as in PMID 16939974; conditions: read-out: KD of NGF binding to p75NTR receptor; cited from earlier work
TrkA [2] = biological target: T1, TrkA; assay: TrkA phosphorylation in HEK293^TrkA transfectants (anti-tyrosine IP, Western blot); type: cell-based; design: expressed in transfected cells; host or cells: HEK293; conditions: 10 min (and 20 min), steroids 100 nM, NGF 100 ng/ml
Description: (§3) HEK293 cells were transfected with the appropriate plasmids (TrkA, p75^NTR, RIP2, TRAF-6, and RhoGDI) by using Lipofectamine 2000 (Invitrogen). Cells were harvested 48 h after transfection and suspended in lysis buffer (50 mM Tris-HCl, 0.15 M NaCl, 1% Triton-X100, pH 7.4) supplemented with protease inhibitors. Lysates were precleared for 1 h with Protein A-Sepharose beads (Amersham) and immunoprecipitated with the appropriate antibody (pTyr, Flag, or c-myc) overnight at 4°C. Protein A Sepharose beads were incubated with the lysates for 4 h at 4°C with gentle shaking. […] Beads were collected by centrifugation, washed four times with lysis buffer, and resuspended in SDS loading buffer. Proteins were separated by SDS/PAGE, followed by immunoblotting with specific antibodies.
as §1, §2

TrkA [3] = assay: TrkA protein levels in serum deprived PC12 cells (immunoblotting); type: cell-based; conditions: serum deprived PC12, 12 to 48 h; 100 nM DHEA, 100 ng/ml NGF; n = 5, p<0.01
Description: as §1, §2

[4] = biological target: T2, p75^NTR with effectors TRAF6, RIP2, RhoGDI (Rattus norvegicus, UniProt P07174); assay: Co-immunoprecipitation of p75NTR with effectors TRAF6, RIP2, RhoGDI in co-transfected HEK293 cells; type: cell-based; conditions: co-transfected HEK293, 30 min; 100 nM DHEA, 100 ng/ml NGF
T2 construct: expressed in transfected cells; host or cells: HEK293
T2 sequence (P07174 30-425): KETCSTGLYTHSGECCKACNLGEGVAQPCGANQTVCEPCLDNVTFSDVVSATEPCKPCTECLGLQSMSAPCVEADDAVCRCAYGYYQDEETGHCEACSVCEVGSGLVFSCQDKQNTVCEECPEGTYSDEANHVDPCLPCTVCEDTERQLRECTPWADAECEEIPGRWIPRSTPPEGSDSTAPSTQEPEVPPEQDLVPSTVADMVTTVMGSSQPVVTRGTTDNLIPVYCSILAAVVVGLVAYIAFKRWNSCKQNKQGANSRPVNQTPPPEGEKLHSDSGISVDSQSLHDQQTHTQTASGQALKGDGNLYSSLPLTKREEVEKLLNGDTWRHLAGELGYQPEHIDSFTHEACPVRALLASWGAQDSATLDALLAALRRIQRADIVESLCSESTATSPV
Description: as §3

p75^NTR = assay: p75NTR protein levels in serum deprived PC12 cells (immunoblotting); type: cell-based; conditions: serum deprived PC12, between 24 and 48 h; 100 nM DHEA, 100 ng/ml NGF; n = 5, p<0.01
Description: as §1, §2

[5] = tested on: Shc, ERK1/2, and Akt kinases; assay: Phosphorylation of Shc, ERK1/2 and Akt kinases in PC12 cells (Western blot); type: cell-based; conditions: serum deprived naive PC12 cells, 10 min; 100 nM DHEA, 100 ng/ml NGF
Description: as §1, §2

PC12 cell membranes = assay: [3H]-DHEA displacement, PC12 cell membranes; type: binding; conditions: unpublished data
Description: HEK293 cells transfected with an empty vector (HEK293-Vector) or overexpressing p75^NTR (HEK293-p75) or TrkA (HEK293-TrkA), and PC12 cells wild type or shRNA knocked down for p75^NTR and TrkA, were cultured, collected by scraping on ice and washed twice with cold Phosphate Buffer Saline (PBS), pH 7.4. After centrifugation at 1,200 rpm, cells were homogenized in a 50 mM Tris-HCl buffer, pH 7.4 (at 4°C), containing freshly added protease inhibitors (1 mM PMSF and 1 µg/ml aprotinin). Crude membrane fractions were isolated by differential centrifugation at 2,500×g (10 min at 4°C, to remove unbroken cells and nuclei) and 102,000×g (1 h, at 4°C). Membranes were washed once with ice-cold 50 mM Tris–HCl buffer, pH 7.4, and re-suspended in the same buffer. […]
Membranes were incubated for 30 min at 25°C or overnight at 4°C, on a rotating plate; then they were collected on GF/B filters, prewetted in 0.5% PEI solution at 4°C. Filters were washed three times with ice-cold PBS, dried, and counted in scintillation fluid (SigmaFluor, Sigma) in a scintillation counter (Perkin Elmer, Foster City, CA) with 60% efficiency for Tritium. For saturation curves, specific binding (Bound, B) was calculated as the difference of Total Binding − Non Specific Binding. KDs were calculated from B/F over B Scatchard plots. […]

B1: NGF: neurotrophin nerve growth factor (protein)
chain: SSTHPVFHMGEFSVCDSVSVWVGDKTTATDIKGKEVTVLAEVNINNSVFRQYFFETKCRASNPVESGCRGIDSKHWNSYCTTTHTFVKALTTDEKQAAWRFIRIDTACVCVLSRKATRRG
- Kd (TrkA receptor): 0.01 nM
- effect on apoptosis of nnr5 cells (nnr5 cells): induced apoptosis
- phosphorylation of TrkA (Tyr490) (TrkA [1]): strongly induced
- Kd (p75^NTR receptor): 1 nM
- phosphorylation of TrkA (TrkA [2]): strongly increased
- TrkA receptor levels (TrkA [3]): significantly increased
- association of p75NTR with effectors TRAF6 and RIP2 [4]: efficiently induced the association
- dissociation of RhoGDI from p75NTR receptors [4]: facilitating the dissociation
- p75NTR receptor levels (p75^NTR): significantly decreased
- phosphorylation of Shc, ERK1/2, and Akt kinases [5]: strongly increased
- IC50 (PC12 cell membranes): 0.92 ± 0.32 nM
